Experimental data: US8221773B2, “Hydrogels and uses thereof” (University of Delaware, priority 2004, dated 2012)
Where no end group is shown, it is not given here.

How the values were obtained:
[1] = Oscillatory rheology of peptide hydrogels (storage and loss moduli); assay type: physicochemical
From the text: (gel storage modulus of ˜600 Pa). Gel formation continued to mature after two hours with a doubling of the gel modulus to ~1200 Pa. An equilibrium storage modulus of ~1600 Pa was reached after several hours of gel formation. This equilibrium behavior is clearly shown by the linear, frequency independent moduli measurements in FIG. 6B. For comparison, the storage modulus of strawberry gelatin is ˜50 Pa (data not shown).
In FIG. 6D, a time sweep experiment identical to that performed during the original gel formation was run immediately after the application of 1000% strain at 6 Hz for 180 seconds. The initial modulus of the reforming gel was 650 Pa with 80% of the equilibrium modulus recovered after only 30 minutes making this a quick recovering and relatively strong hydrogel. For comparison, a 2 wt % gelatin hydrogel takes over 4 h to recover 80% of its equilibrium modulus after shear thinning.
Rheology: Dynamic time and frequency sweep experiments were performed in a strain controlled Rheometrics ARES rheometer with 25.0 mm diameter parallel plate geometry and 0.5 mm gap distance. Lyophilized peptide was dissolved in de-ionized water and buffer or cell growth media solution at 10° C. in order to suppress folding and gelation before the sample is loaded into the rheometer. After the sample was loaded, temperature was increased to either 20° C. or 37° C. Standard low viscosity mineral oil was used to insulate the sides of the plate in order to suppress evaporation. […] Strain sweep experiments were performed to determine the linear viscoelastic regime in which all rheological experiments were performed. Dynamic time sweep experiments were performed with a frequency and strain of 6 rad/s and 1%, respectively. Frequency sweep experiments were performed with a frequency and strain of 0.1-100 rad/s and 5%, respectively.

[2] = Hydrogelation by folding and self-assembly; assay type: physicochemical; details: pH 9, heating/cooling cycles
Experimental: The ability of MAX1 to undergo hydrogelation is dependent upon its unimolecular folded state. Under basic aqueous solution conditions (pH 9.0, 125 mM Borate, 10 mM NaCl), where some of the lysine side chains of MAX1 are neutral, this peptide intramolecularly folds into an amphiphilic β-hairpin (folding can also be triggered at pH 7 under physiological conditions). One face of the hairpin is lined with hydrophobic valine residues while the other face is lined with hydrophilic lysine residues, FIGS. 2 and 3A. After intramolecular folding, subsequent self-assembly of hairpins is facilitated (a) laterally via H-bond formation and attractive hydrophobic interactions between distinct hairpins as well as (b) facially by hydrophobic association of the valine-rich faces of the folded peptide resulting in hydrogelation, FIG. 3B. Since the charged state of the lysine residues are controlled by pH, the unimolecular folding is reversible. Lowering the pH below the intrinsic pKa of the lysine side chains results in intra-strand charge repulsion from neighboring lysines and subsequent unfolding of individual hairpins, ultimately dissolving the self-assembled hydrogel structure. This reversible behavior is unique when compared to β-sheet-rich hydrogels prepared from classical fibril-based designs. In these systems, the self-assembly process is irreversible.
There are reports of large polymers that are thermally responsive. The present invention provides the first system that employs temperature triggered folding to induce self-assembly. […] Heating the solution to 80° C. results in a spectra consistent with β-sheet structure. […] The temperatures used in both CD and rheology bracket the temperature (Tgel=60° C., FIG. 9) at which folding and consequent self-assembly is triggered. […] For example, free flowing peptide solutions could be prepared at room temperature and administered in vivo where the temperature of the body could induce gelation. Some Poly-N-isopropylacrylamide polymers have been engineered have been engineered to undergo such transitions ultimately affording extracellular-like scaffolds for tissue regeneration. The above studies support the idea that the formation of hydrophobic interactions are important. MAX1-3 all contain valines and threonines at hydrogen bonded positions. At these positions, their side chains prefer to adopt a trans rotamer. As a result, hydrophobic residues that oppose each other across the hairpin point their side chains in opposite directions thus making the formation of intramolecular hydrophobic interactions across the strands difficult, FIG. 11A. However, these side chains are nicely positioned to interact laterally with the hydrophobic side chains of neighboring hairpins in the self-assembled state, FIG. 11B. Forming these lateral hydrophobic interactions should favor self-assembly. […] In MAX4, opposing valine side chains are expected to point towards each other, FIG. 11B. Thus, the valine side chains of MAX4 are less likely than those in MAX1 to form lateral intermolecular hydrophobic interactions. If the formation of lateral intermolecular hydrophobic interactions is of more importance for self-assembly than intramolecular hydrophobic contacts, then the rate of self-assembly should be faster for MAX1 than for MAX4. This difference in rate should be evident in the rate of storage moduli (rigidity) increase. […] (Tgel=20° C. for both peptides). […]

[3] = 2 wt %, pH 7.4, 20 mM NaCl, 20° C
[4] = 2 wt %, pH 9, 1000% strain at 6 Hz for 180 s (FIG. 6D legend)
[5] = 2 wt %, serum free DMEM cell growth media, 37° C

Sequence: VKVKVKVK V^DPPT KVKVKVKV-NH2 (not fully specified (C-terminus)) [MAX1]
- rate of self-assembly leading to a rheological response, compared to MAX4 ([1]; 1 wt % preparations, 40° C, pH 9.0, 125 mM Borate, 10 mM NaCl): faster
- G′ values (frequency sweep) ([1]; 2 wt %, cell growth media, 37° C): ~2500 Pa
- G′ recovered instantaneously after cessation of shear, of initial value ([1]; 2 wt %, cell growth media, 37° C, after 1000% strain at 6 rad/s): ~50%
- hydrogel rigidity (storage modulus) ([1]; 2 wt %, pH 7, NaCl final concentration 150 mM, data not shown): 3000 Pa
- G′ during lag time [1, 3]: 2-3 Pa
- lag time before G′ increases [1, 3]: 3000 s
- storage modulus (G′) ([1]; 2 wt %, pH 7.4, 20 mM NaCl, 20° C, after 2.5 hr gelation): ~100 Pa
- lag time before G′ increases ([1]; 2 wt %, pH 7.4, 150 mM NaCl, 20° C): ~1000 s
- time of gelation to a material of useful rigidity ([1]; 2 wt %, pH 7.4, 150 mM NaCl, 37° C): about 10 minutes
- G′ value (frequency sweep) ([1]; 2 wt %, pH 7.4, 150 mM NaCl, 37° C, after 2.5 hours gelation): around 2000 Pa
- lag time before G′ increases ([1]; 2 wt %, pH 7.4, 400 mM NaCl, 20° C): does not exist
- equilibrium storage modulus (G′) ([1]; 2 wt %, pH 7.4, 400 mM NaCl, 20° C, after 2.5 hr gelation): ~3000 Pa
- former rigidity regained immediately after large strain [1, 4]: ~75%
- time to regain prestrain rigidity [1, 4]: 10 to 20 min
- equilibrium modulus recovered after 30 minutes ([1]; 2 wt %, pH 9, after 1000% strain at 6 Hz for 180 seconds): 80%
- initial modulus of the reforming gel ([1]; 2 wt %, pH 9, immediately after 1000% strain at 6 Hz for 180 seconds): 650 Pa
- storage moduli (rigidity) of gels prepared by protocol 1 ([1]; 2 wt %, pH 9 borate buffer trigger, then bathed in DMEM with 10% calf serum): about 1600 Pa
- G′ at the end of 2 hours of gelation [1, 5]: 2300 Pa
- G″ at the end of 2 hours of gelation [1, 5]: 50 Pa
- G′ values ([1]; pH 7.4 without added NaCl, after 3 hours, no gelation): approximately 1 Pa
- crossover concentration separating liquid-like (G″>G′) and gel-like (G′>G″) response ([1]; pH 9): about 1 wt %
- reversibility of thermally induced hydrogelation [2]: not reversible
